Measured values published in patent US20200024370A1.

Target: NpuN (cysteine-free, C.F.), N-terminal Npu DnaE intein segment with His tag and three C-terminal cysteines, coupled to SulfoLink resin (Nostoc punctiforme)
Assay: cell-based or functional assay

Q: With “NpuC^HN-SK^C, C-terminal intein segment with serine to histidine mutation fused to streptokinase with cysteine as +1 residue (from UniProt P00779 27-440)” as the substance, how does the cleaving percentage (C-terminal cleavage, SDS-PAGE), in solution, room temperature, pH 8.5, 1 hour read?
A: > 50%
